Assay [1] has as its target CD81 MBP-LEL113-201 (maltose-binding protein linked to the CD81 large extracellular loop, residues 113 to 201), dimeric form (UniProt P60033). Kind of assay: SPR; 1:1 model for dimer/trimer, two-state model for monomer. (In general: Surface plasmon resonance follows binding to a sensor surface in real time, without labels.)
Assay [2] has the same target. Briefly: SPR; 1:1 Langmuir model.

Chain of UniProt P60033 (P60033 113-201 limits assumed): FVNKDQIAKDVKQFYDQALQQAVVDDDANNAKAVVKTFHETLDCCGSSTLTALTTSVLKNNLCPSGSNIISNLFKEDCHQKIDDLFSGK

Substance “H77c WT E2661-his, trimer (putative) (from UniProt P27958 384-661) (ligand)” came in with a fold higher affinity than the monomeric protein in assay [1] of 10 fold.

On to “H77c WT E2661-his, dimer (from UniProt P27958 384-661) (ligand)”, for which, in assay [1], the fold higher affinity than the monomeric protein was 10 fold.

In the case of “H77c ΔHVR1+2+3 E2661-his, trimer (putative) (from UniProt P27958 384-661) (ligand)”, the fold higher affinity than the monomeric protein in assay [1] was found to be 10 fold.

Consider “H77c ΔHVR1+2+3 E2661-his, dimer (from UniProt P27958 384-661) (ligand)”, for which the fold higher affinity than the monomeric protein in assay [1] was 10 fold. For the same substance, the fold higher affinity than the WT dimer in assay [2] turned out to be 2 fold.

(Values after US20130323282A1.)
